The target of one test is CheA (Escherichia coli) (UniProt P07363). The note with it: cited from earlier work.
Test [1] concerns the target cytoplasmic fragment of the E coli Asp receptor (CF4Q) (E. coli). Nature of the test: co-sedimentation.

One may read the Kd as a measure of binding affinity in units of concentration. With CheA (from UniProt P07363), the Kd with CheA (Escherichia coli) is 490 nM.

B1: chemotaxis histidine kinase (CheA) (enzyme)
chain: MSMDISDFYQTFFDEADELLADMEQHLLVLQPEAPDAEQLNAIFRAAHSIKGGAGTFGFSVLQETTHLMENLLDEARRGEMQLNTDIINLFLETKDIMQEQLDAYKQSQEPDAASFDYICQALRQLALEAKGETPSAVTRLSVVAKSEPQDEQSRSQSPRRIILSRLKAGEVDLLEEELGHLTTLTDVVKGADSLSAILPGDIAEDDITAVLCFVIEADQITFETVEVSPKISTPPVLKLAAEQAPTGRVEREKTTRSNESTSIRVAVEKVDQLINLVGELVITQSMLAQRSSELDPVNHGDLITSMGQLQRNARDLQESVMSIRMMPMEYVFSRYPRLVRDLAGKLGKQVELTLVGSSTELDKSLIERIIDPLTHLVRNSLDHGIELPEKRLAAGKNSVGNLILSAEHQGGNICIEVTDDGAGLNRERILAKAASQGLTVSENMSDDEVAMLIFAPGFSTAEQVTDVSGRGVGMDVVKRNIQKMGGHVEIQSKQGTGTTIRILLPLTLAILDGMSVRVADEVFILPLNAVMESLQPREADLHPLAGGERVLEVRGEYLPIVELWKVFNVAGAKTEATQGIVVILQSGGRRYALLVDQLIGQHQVVVKNLESNYRKVPGISAATILGDGSVALIVDVSALQAINREQRMANTAA
In test [1], B1 yielded a fraction of CheA bound of 88%.

(Values after article PMC9812933.)
